According to patent publication US20170355757A1 (Regeneron, published 2017):

Assays:
[1] = target: T1, monkey C5-mmh (monkey, UniProt P01031 19-1676 (human entry), limits assumed); test: SPR, mAb captured via anti-hFc, 37C
T1 construct: Recombinant monkey C5 with a C-terminal myc-myc-hexahistidine tag
T1 chain: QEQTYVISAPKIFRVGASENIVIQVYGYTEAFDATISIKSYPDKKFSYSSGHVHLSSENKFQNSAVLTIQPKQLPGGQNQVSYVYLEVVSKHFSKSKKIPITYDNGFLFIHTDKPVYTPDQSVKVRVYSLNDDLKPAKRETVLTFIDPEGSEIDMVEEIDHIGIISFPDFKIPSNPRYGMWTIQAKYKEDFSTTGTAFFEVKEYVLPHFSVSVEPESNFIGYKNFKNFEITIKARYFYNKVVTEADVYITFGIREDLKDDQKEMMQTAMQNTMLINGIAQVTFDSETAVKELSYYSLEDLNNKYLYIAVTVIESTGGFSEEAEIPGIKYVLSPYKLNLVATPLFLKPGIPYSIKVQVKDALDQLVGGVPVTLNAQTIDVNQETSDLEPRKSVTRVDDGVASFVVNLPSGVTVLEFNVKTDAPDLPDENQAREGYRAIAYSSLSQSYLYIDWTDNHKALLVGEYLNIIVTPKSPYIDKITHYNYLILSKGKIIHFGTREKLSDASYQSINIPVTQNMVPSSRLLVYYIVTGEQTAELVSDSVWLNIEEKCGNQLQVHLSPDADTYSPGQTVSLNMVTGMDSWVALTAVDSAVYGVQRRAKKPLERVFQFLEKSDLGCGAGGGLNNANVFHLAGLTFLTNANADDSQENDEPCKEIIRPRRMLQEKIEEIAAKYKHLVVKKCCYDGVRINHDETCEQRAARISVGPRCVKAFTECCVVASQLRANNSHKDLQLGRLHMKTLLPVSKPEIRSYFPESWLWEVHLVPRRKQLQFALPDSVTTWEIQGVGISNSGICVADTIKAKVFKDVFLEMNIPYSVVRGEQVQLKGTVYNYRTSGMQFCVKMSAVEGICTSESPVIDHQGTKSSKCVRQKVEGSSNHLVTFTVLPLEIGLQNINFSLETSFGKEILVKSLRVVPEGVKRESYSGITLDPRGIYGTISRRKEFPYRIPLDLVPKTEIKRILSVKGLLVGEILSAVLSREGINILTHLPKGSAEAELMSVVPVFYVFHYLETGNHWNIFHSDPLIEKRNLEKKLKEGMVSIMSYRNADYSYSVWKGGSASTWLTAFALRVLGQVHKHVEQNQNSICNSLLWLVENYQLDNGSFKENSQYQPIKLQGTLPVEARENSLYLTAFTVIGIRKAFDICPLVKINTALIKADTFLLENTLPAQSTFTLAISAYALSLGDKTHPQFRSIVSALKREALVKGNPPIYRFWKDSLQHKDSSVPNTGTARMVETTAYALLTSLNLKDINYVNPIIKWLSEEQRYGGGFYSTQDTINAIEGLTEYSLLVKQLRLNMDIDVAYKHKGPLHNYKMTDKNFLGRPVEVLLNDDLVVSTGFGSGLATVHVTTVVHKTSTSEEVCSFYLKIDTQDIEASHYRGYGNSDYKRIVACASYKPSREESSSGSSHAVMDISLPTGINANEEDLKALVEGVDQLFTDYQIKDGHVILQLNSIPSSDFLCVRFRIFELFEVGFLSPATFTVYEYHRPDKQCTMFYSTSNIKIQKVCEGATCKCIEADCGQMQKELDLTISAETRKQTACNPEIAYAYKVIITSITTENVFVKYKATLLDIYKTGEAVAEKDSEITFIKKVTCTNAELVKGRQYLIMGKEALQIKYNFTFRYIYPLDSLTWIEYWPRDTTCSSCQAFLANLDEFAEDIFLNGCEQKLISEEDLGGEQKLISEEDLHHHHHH
In short: (§1)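 Anti-C5 mAbs were held by immobilised mouse anti-human Fc, and untagged or mmh-tagged C5 flowed 3 min, then buffer 8 min, in HBST pH 7.4.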

[2] = target: T2, human C5 R885H-mmh (human, UniProt P01031 19-1676); test: SPR, mAb captured via anti-hFc, 37C
T2 construct: also called human C5 variant R885H
In short: as §1

[3] = target: T3, human C5 R885C-mmh (human, UniProt P01031 19-1676); test: SPR, mAb captured via anti-hFc, 37C
T3 construct: also called human C5 variant R885C
In short: as §1

[4] = target: T2, human C5 R885H-mmh; test: SPR, mAb captured via anti-hFc, 25C
In short: as §1

[5] = target: T3, human C5 R885C-mmh; test: SPR, mAb captured via anti-hFc, 25C
In short: as §1

[6] = target: T4, human C5 (human, UniProt P01031 19-1676); test: SPR, mAb captured via anti-hFc, dissociation at pH7.4 vs pH6.0, 25C
T4 construct: Bought human C5 (EMD #204888, said elsewhere to be purified from plasma); also called hC5; complement component 5
In short: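 Anti-C5 mAbs (human IgG4 Fc) captured on an amine-coupled mouse anti-human Fc surface; recombinant C5 dissociation followed by Biacore T200 in PBS-T (0.01M phosphate, 0.15M NaCl, 0.05% Tween-20) at pH7.4 or pH6.0. Dissociative half-life (t½) calculated from kd.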

[7] = target: T5, human C5 (human, UniProt P01031 19-1676); test: cell-based or functional assay
[8] = target: T6, African green monkey C5 (African green monkey); test: cell-based or functional assay
[9] = target: human C5 R885H-mmh (human, UniProt P01031 19-1676); test: cell-based or functional assay
[10] = target: human C5 R885C-mmh (human, UniProt P01031 19-1676); test: cell-based or functional assay
[11] = target: T5, human C5; test: cell-based or functional assay; remark: listed apart in the source
[12] = target: T6, African green monkey C5; test: cell-based or functional assay; remark: listed apart in the source
[13] = target: Cynomolgus monkey C5 (cynomolgus monkey, UniProt A0A2K5U1T1 19-1676); test: cell-based or functional assay
[14] = target: T7, monkey C5-mmh (monkey, UniProt P01031 19-1676 (human entry), limits assumed); test: SPR (Biacore), mAb captured, dissociation of monkey C5 at pH7.4 vs pH6.0, 25°C
T7 construct: recombinant, with C-terminal myc-myc-hexahistidine tag
T7 chain: T1 chain

[15] = target: T7, monkey C5-mmh; test: SPR (Biacore), mAb captured, dissociation of monkey C5 at pH7.4 vs pH6.0, 37°C

B1: H4H12177P2 (antibody, human IgG4, V domains shown)
VH: EVQLVESGGGVVQRGESLRLSCSASDFIFKDYAMYWVRQIPGKGLEWISLISGDGDTTWYGDSVKGRFTISRDNNENSLFLQMNDLRTEDTAMYYCARDMGWNFFQLQYWGQGTLVTVSS
VL: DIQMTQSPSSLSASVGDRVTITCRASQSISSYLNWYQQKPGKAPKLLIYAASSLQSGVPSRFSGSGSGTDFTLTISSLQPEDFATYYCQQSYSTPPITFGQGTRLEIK
notes: Human IgG4 Fc with S108P hinge mutation (H4H)
100 nM monkey C5-mmh Bound (RU) [1]: 27 RU
Kd [1]: 47.7 nM
koff [1]: 0.00717 s⁻¹
kon [1]: 150000 M⁻¹ s⁻¹
t1/2 [1]: 2 min
100 nM Human C5 R885H-mmh Bound (RU) [2]: 51 RU
Kd [2]: 10 nM
koff [2]: 0.00276 s⁻¹
kon [2]: 276000 M⁻¹ s⁻¹
t1/2 [2]: 4 min
100 nM Human C5 R885C-mmh Bound (RU) [3]: 31 RU
Kd [3]: 47.6 nM
koff [3]: 0.00507 s⁻¹
kon [3]: 107000 M⁻¹ s⁻¹
t1/2 [3]: 2 min
100 nM Human C5 R885H-mmh Bound (RU) [4]: 232 RU
Kd [4]: 4.01 nM
koff [4]: 0.000592 s⁻¹
kon [4]: 148000 M⁻¹ s⁻¹
t1/2 [4]: 20 min
100 nM Human C5 R885C-mmh Bound (RU) [5]: 177 RU
Kd [5]: 13.2 nM
koff [5]: 0.00132 s⁻¹
kon [5]: 100000 M⁻¹ s⁻¹
t1/2 [5]: 9 min
t1/2 Ratio pH7.4/pH6.0 [6]: ≤ 0.5

B2: H4H12169P (antibody, human IgG4, V domains shown)
VH: EVQLVESGGGLAQPGGSLRLSCAASGFTFRSYAMSWVRQAPGKGPEWVSGIGGNGVTTYYADSVKGRFTISRDNSKNTLFLQMNSLRAEDTAVYYCVQGGLGGYFTGYWGQGTLVTVSS
VL: DIQMTQSPSSLSASVGDRVTITCRASQSISTYLNWYQQNPGKAPKLLIFDASSLQSGVPSRFSGSGSGTDFTLTIRGLQPEDFATYYCQQSYSAPLTFGGGTKVEIK
notes: H4H: human IgG4 Fc with S108P hinge mutation
IC50, inhibition of CDC of Daudi cells, 1.66% human serum [7]: 1.7 nM
IC50, inhibition of CDC of Daudi cells, 1.66% African Green monkey serum [8]: 2.9 nM
IC50, inhibition of CDC of Daudi cells, C5 depleted human serum and 6.6 nM C5 Variant R885H [9]: 1.3 nM
IC50, inhibition of CDC of Daudi cells, C5 depleted human serum and 6.6 nM C5 Variant R885C [10]: 0.67 nM
Human AP % Max Inhibition, hemolysis assay, NHS [11]: 44.5%
Human AP IC50, hemolysis assay, NHS [11]: 20 nM
Human CP % Max Inhibition, hemolysis assay, NHS [11]: 98.3%
Human CP IC50, hemolysis assay, NHS [11]: 2.36 nM
AGM AP % Max Inhibition, hemolysis assay, 5% serum [12]: 45.7%
AGM CP % Max Inhibition, hemolysis assay, 5% serum [12]: 43.3%
AGM Serum AP IC50, hemolysis assay, 5% serum [12]: 91.5 nM
AGM Serum CP IC50, hemolysis assay, 5% serum [12]: 34.4 nM
Cyno AP % Max Inhibition, hemolysis assay, 5% serum [13]: 96.3%
Cyno CP % Max Inhibition, hemolysis assay, 5% serum [13]: 92.8%
Cyno Serum AP IC50, hemolysis assay, 5% serum [13]: 7.95 nM
Cyno Serum CP IC50, hemolysis assay, 5% serum [13]: 19.9 nM
t½ Ratio pH7.4/pH6.0 [14]: 3.4
t½ Ratio pH7.4/pH6.0 [15]: 2
